Results: US20250382602
Positions count from the first letter of the chain named.

Columns and labels:
Details in all cases: nanopore translocation, PromethION; background mutations not given
[1] = target: T1, Dda 1993 N221E N221E (Enterobacteria phage T4) (UniProt P32270)
T1 sequence: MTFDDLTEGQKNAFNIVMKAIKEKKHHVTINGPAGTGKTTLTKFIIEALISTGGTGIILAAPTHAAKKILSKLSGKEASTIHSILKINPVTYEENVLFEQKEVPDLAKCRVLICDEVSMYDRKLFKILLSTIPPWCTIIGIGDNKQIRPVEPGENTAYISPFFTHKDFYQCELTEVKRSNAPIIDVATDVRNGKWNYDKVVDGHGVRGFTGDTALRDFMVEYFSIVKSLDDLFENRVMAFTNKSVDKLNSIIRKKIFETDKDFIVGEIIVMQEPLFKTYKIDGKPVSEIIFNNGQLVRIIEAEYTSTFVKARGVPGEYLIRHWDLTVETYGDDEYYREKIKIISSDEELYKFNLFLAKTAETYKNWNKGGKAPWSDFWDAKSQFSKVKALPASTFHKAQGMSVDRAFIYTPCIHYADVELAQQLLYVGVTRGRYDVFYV

[2] = target: T2, Dda 1993 T156F T156F (Enterobacteria phage T4) (UniProt P32270)
T2 sequence: T1 sequence with T156F, E221N

[3] = target: T3, Dda 1993 T210K T210K (Enterobacteria phage T4) (UniProt P32270)
T3 sequence: T1 sequence with T210K, E221N

[4] = target: T4, Dda 1993 T55K T55K (Enterobacteria phage T4) (UniProt P32270)
T4 sequence: T1 sequence with T55K, E221N

[5] = target: T5, Dda 1993 Y350E Y350E (Enterobacteria phage T4) (UniProt P32270)
T5 sequence: T1 sequence with E221N, Y350E

**Q.** What does the source list for “barcoded 3.6 kb DNA analyte ligated to sequencing Y adaptor”?
**A.** activity (bps speed delta vs control) [1]: 4.37; activity (bps speed delta vs control) [2]: 13.8; activity (bps speed delta vs control) [3]: 0.52; activity (bps speed delta vs control) [4]: 8.29; activity (bps speed delta vs control) [5]: 6.06
